Data: a protein production outcome set (Wang et al. 2014)

Experiment: label from the status in PepcDB records

Sequence	protein production
MHTLEQLRAGALTGIQALKLSENLTEVPAEVFQLADTLEILDLSGNRLHSLPQEMACLTRLRILFLSDNDFTIFPEVLKELKQLDMLGIKANNIQVIAEDAIPVSLRWLILTDNCIEALPVSIGRCTKLQKVMLAGNQLSGLPDELAACRNIELLRISANNMHTFPEVVKQLPRLAWLAYSSNPFQVNRSSFNALPVIAWENVALMEQLGAGASGIIYKARLNTGKSPEDVAVKVFKGAVTSDGLPEDEMTACMQAGRNSHLVSVLGVIGGHPEGMHGLVMELIPAEYKNLGRPPSFVTCTRDTFAAGTRFTAQQMLLILKGVAEAAKQLHDNGIMHGDLYAHNTLINEKYHSLFGDFGAATLYDKNNRDEAFFLERLDVRAFGCLADDLLQYSVCTKEDEWCLETLKRLSAGCMNEEPDKRPAFNTIVYELQLLQNTHLEHHHHHH	not failed
MHVDIELPLGRATALQRLRAQGFCVLTPAALETLTGMPLDAFDMMLPYWEELAPDLHLKDGGHYRYRRHGCFMQTLQPGQLETVQHRAHWQPTTYNALHGGMERWFEPLSNEMIHLPSWSALLVALGELFAKLRAPQGGRWYIEAHPFRIDTEGGVGRPTPEGAHRDGVDFVAVVFIGRQGVRGGETRVFDAAGPQGVRFTLEQPWTVLLLDDQQVIHESTPLLPLDPADPAVPAHRDTLVLTYRSGGFQAPA	not failed
MHVEQTRINMQSQGQSHQLPSAAHILLDQNPNSTGSNLVVKQNDIQSLSSVGLLELAHREYQAVDYESAEKHCMQLWRQDSTNTGVLLLLSSIHFQCRRLDKSAQFSTLAIKQNPVLAEAYSNLGNVFKERGQLQEALDNYRRAVRLKPDFIDGYINLAAALVAARDMESAVQAYITALQYNPDLYCVRSDLGNLLKALGRLEEAKACYLKAIETCPGFAVAWSNLGCVFNAQGEIWLAIHHFEKAVTLDPNFLDAYINLGNVLKEARIFDRAVAAYLRALNLSPNNAVVHGNLACVYYEQGLIDLAIDTYRRAIELQPNFPDAYCNLANALKEKGQVKEAEDCYNTALRLCSNHADSLNNLANIKREQGYIEEATRLYLKALEVFPDFAAAHSNLASVLQQQGKLKEALMHYKEAIRIQPTFADAYSNMGNTLKELQDVSGALQCYTRAIQINPAFADAHSNLASIHKDSGNIPEAIQSYRTALKLKPDFPDAYCNLAHCLQIVCDWTDYDIRMKKLVSIVTEQLEKNRLPSVHPHHSMLYPLTHDCRKAIAARHANLCLEKVHVLHKKPYNFLKKLPTKGRLRIGYLSSDFGNHPTSHLMQSVPGLHDRSKVEIFCYALSPDDGTTFRHKISRESENFVDLSQIPCNGKAADKIFNDGIHILVNMNGYTKGARNEIFALRPAPIQVMWLGYPGTSGASFMDYIITDSVTSPLELAYQYSEKLSYMPHTYFIGDHKQMFPHLKERIIVCDKQQSSVVDNVTVINATDLSPLVENTDVKEIKEVVNAQKPVEITHKVAELPNTTQIVSMIATGQVQTSLNGVVVQNGLATTQTNNKAATGEEVPQNIVITTRRQYMLPDDAVVYCNFNQLYKIDPQTLESWVEILKNVPKSVLWLLRFPAVGEQNIKKTVSDFGISPDRVIFSNVAAKEEHVRRGQLADICLDTPLCNGHTTSMDVLWTGTPVVTLPGETLASRVAASQLATLGCPELIARTREEYQNIAIRLGTKKEYLKALRAKVWKARVESPLFDCSQYAKGLEKLFLRMWEKYENGELPDHISAV	failed
MHVNPLISVARSKASALFAALALVLVVTLTLAGCSSDKSGETTAEAKKDPSSIRVVALDWRYEEILHALGITPVGIVEIGKSKEPQTLKGELEGVTSVGQAKQPNLEVIQSLEPDLILASPTRQAAIMDQLKEIAPTHAYGDTSYTEVLDAMDDIATKVGAEDKAKEVRTRIESKIAQAKNKVEPGTRTALIGWSKNTLYTWVKDSFAGSLLTAAGYEYGYDGEKSAIESKTDVAELTGDKLPEMKLDVMYLYNDIEGFRSSPYADVVSNIVDVEQDTWSRSRGPLAAEAMLDQIINS	failed
MIAAVAVFALTYVAVAAGRFPYLSLDRPAAALLGAVLMVALGVLTPAEGGAAVNGETLGLLLGMMVLTAYLGEAGFFRWASWRVLRAAGTPRTLLWGVVFTAGALSALLVNDTVCLMMTPLVLRMVDDADLPPLPYLLAVAFGSNAGSAATLTGNPQNMIVGTLSGIGYGRFAAALALPALASLLLVAALLHALFRRALPRGPLAGGRPAAPAVDRALLAKALGALALAVTGFLLGLELAWTALFAAALCMAIAGRAPREALQRVDWPLLVFFAGLFVVVAGIGRAGVTERMYQAVAPLLGADPARQSAVFGLFSIAASQVVSNVPFVILAGEWIPRLADPTLLWLATALCATLAGNLTIVGSVANVIVLELAGSRGRIGFWRFFRVGAVVTAATVAAGLGILLLEHRLGLIG	failed
